The target in test [1] is T1, recombinant human PDGF-BB (human, UniProt P01127 82-190, biotin-labelled in the binding and competition ELISAs (sites not given)).
T1 construct: Bought protein (CST cat#8912BF) in the ELISAs and cell assays; purified recombinant PDGF-BB in Biacore; also called huPDGF-BB; hPDGF-BB
Description: Biacore SPR, antibody captured, PDGF-BB injected. How it is done: (§1) For example, approximately 9000 RU of goat anti-human Fc specific polyclonal antibody (Thermo Fisher Scientific Inc., Rockford, Ill.) diluted in 10 mM sodium acetate (pH 4.5) is directly immobilized across a CM5 research grade biosensor chip using a standard amine coupling kit according to manufacturer's instructions and procedures at 25 μg/ml. Unreacted moieties on the biosensor surface were blocked with ethanolamine. For kinetic analysis, rate equations derived from the 1:1 Langmuir binding model were fitted simultaneously to multiple antigen injections (using global fit analysis) with the use of Scrubber 2 (BioLogic Software), Biacore Biaevaluation 4.0.1 software or Biacore T100 Evaluation software. Purified antibodies or DVD-Ig molecules were diluted in running buffer for capture across goat anti-human Fc reaction surfaces. Antibodies or DVD-Ig molecules to be captured as a ligand (1 μg/ml) were injected over reaction matrices at a flow rate of 10 μl/minute. During the assay, all measurements were referenced against the capture surface alone (i.e., with no captured antibody or DVD-Ig molecule). […] The equilibrium dissociation constant KD (M) of the reaction between antibodies and the target antigen was then calculated from the kinetic rate constants by the following formula: KD=Koff/Kₒₙ. Binding was recorded as a function of time and kinetic rate constants were calculated.
Background: Surface plasmon resonance follows binding to a sensor surface in real time, without labels.

A further test deals with T2, human VEGF111 (human, UniProt P15692-10 27-137).
T2 sequence (looked up): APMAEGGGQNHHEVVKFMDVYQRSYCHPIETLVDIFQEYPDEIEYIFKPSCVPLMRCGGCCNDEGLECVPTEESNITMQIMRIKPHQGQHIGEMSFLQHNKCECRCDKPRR
In words: cell-based or functional assay.

The target in test [2] is T3, Human VEGF-A 165 (human, UniProt P15692 207-395). Description: cell-based or functional assay.
For test [3], the target named is T3, Human VEGF-A 165. In words: receptor competition ELISA: antibody titrated against biotinylated hVEGF165, binding to coated hVEGF-R2-Fc read. How it is done:
To identify molecules that could block the binding of hVEGF₁₆₅ to the hVEGF-R2 (KDR/Flk-1) receptor, a competition ELISA was performed. […] Plates were then washed four times with wash buffer (TBS, 0.05% Tween-20) and blocked with Superblock blocking buffer (Thermo Scientific, cat#37535). […] The pre-incubated sample/hVEGF₁₆₅ complex was added to the coated plate at 50 μL in duplicate and incubated for 30 minutes at 25° C. with shaking. Following incubation, plates were washed four times with wash buffer. Streptavidin-polyHRP-40 (Fitzgerald cal#65r-s104phrp) was diluted in assay diluent (10% Superblock containing 0.05% surfactamps) and added to plates (50 μL) for 45 minutes at 25° C. with shaking. Plates were washed four times with wash buffer and developed with the addition of Enhanced K-blue TMB substrate (Neogen cat#308177). The reaction was stopped with 2N sulfuric acid (VWR, cat# BDH3500-1) and the absorbance was read at 450 nm-570 nm. A decrease in observed optical density indicates the test molecule is blocking the hVEGF₁₆₅ binding to the hVEGF-R2-Fc. Data was analyzed using Softmax Pro 4.8 software and IC₅₀ values calculated using a sigmoidal dose response (variable slope) fit in GraphPad Prism 5.
For orientation: An ELISA detects its analyte on a solid surface through an enzyme-linked reagent.

The target in test [4] is T3, Human VEGF-A 165. In words: SPR (Biacore), antibody captured by anti-human Fc, hVEGF165 as analyte. Summed up: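 Antibodies or DVD-Ig molecules (1 μg/ml) were captured on an anti-human Fc CM5 surface, with antigen injected in solution and responses referenced to the capture-only surface. Rate constants came from a global 1:1 Langmuir fit, and KD = koff/kon.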
Test [5] has as its target T4, human VEGF 165 (PR-1350437) (human, UniProt P15692 207-395).
T4 construct: Purified recombinant protein; also called hVEGF165
Description: SPR (Biacore), mAb captured by anti-human Fc, antigen injected. The protocol:
as §1, with “Unreacted” for “For example, approximately 9000 RU of goat anti-human Fc specific polyclonal antibody (Thermo Fisher Scientific Inc., Rockford, Ill.) diluted in 10 mM sodium acetate (pH 4.5) is directly immobilized across a CM5 research grade biosensor chip using a standard amine coupling kit according to manufacturer's instructions and procedures at 25 μg/ml. Unreacted”, “calculated. In this assay, on-rates as fast as 10⁶M⁻¹s⁻¹ and off-rates as slow as 10⁻⁶ s⁻¹ could be measured.” for “calculated.”

Test [6] addresses T5, human VEGF 111 (PR-1520687) (human, UniProt P15692-10 27-137).
T5 construct: also called hVEGF111
T5 sequence (looked up): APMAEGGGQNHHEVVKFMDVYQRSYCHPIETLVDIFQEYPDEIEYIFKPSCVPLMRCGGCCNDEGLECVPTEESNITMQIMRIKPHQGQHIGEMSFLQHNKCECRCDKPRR
Described as above. How it is done: as §1, with “Unreacted” for “For example, approximately 9000 RU of goat anti-human Fc specific polyclonal antibody (Thermo Fisher Scientific Inc., Rockford, Ill.) diluted in 10 mM sodium acetate (pH 4.5) is directly immobilized across a CM5 research grade biosensor chip using a standard amine coupling kit according to manufacturer's instructions and procedures at 25 μg/ml. Unreacted”, “calculated. In this assay, on-rates as fast as 10⁶M⁻¹s⁻¹ and off-rates as slow as 10⁻⁶ s⁻¹ could be measured.” for “calculated.”

Test [7] has as its target T6, human VEGF 121 (PR-1515941) (human, UniProt P15692 207-395).
T6 construct: Recombinant isoform; also called hVEGF121
T6 sequence: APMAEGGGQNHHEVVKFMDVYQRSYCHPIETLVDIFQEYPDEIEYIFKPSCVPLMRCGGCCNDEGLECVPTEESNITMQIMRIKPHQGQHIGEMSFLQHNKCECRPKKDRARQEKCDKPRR
The description is as above. How it is done:
as §1, with “Unreacted” for “For example, approximately 9000 RU of goat anti-human Fc specific polyclonal antibody (Thermo Fisher Scientific Inc., Rockford, Ill.) diluted in 10 mM sodium acetate (pH 4.5) is directly immobilized across a CM5 research grade biosensor chip using a standard amine coupling kit according to manufacturer's instructions and procedures at 25 μg/ml. Unreacted”, “calculated. In this assay, on-rates as fast as 10⁶M⁻¹s⁻¹ and off-rates as slow as 10⁻⁶ s⁻¹ could be measured.” for “calculated.”

The target in test [8] is T7, mouse PDGF-B (PR-1577160) (mouse, UniProt P31240 82-190).
T7 construct: Recombinant; also called mouse PDGF-BB; mPDGF-BB
The description is as above. The protocol: as §1, with “Unreacted” for “For example, approximately 9000 RU of goat anti-human Fc specific polyclonal antibody (Thermo Fisher Scientific Inc., Rockford, Ill.) diluted in 10 mM sodium acetate (pH 4.5) is directly immobilized across a CM5 research grade biosensor chip using a standard amine coupling kit according to manufacturer's instructions and procedures at 25 μg/ml. Unreacted”, “calculated. In this assay, on-rates as fast as 10⁶M⁻¹s⁻¹ and off-rates as slow as 10⁻⁶ s⁻¹ could be measured.” for “calculated.”

Test [9] has as its target T8, human PDGF-B (PR-1373790) (human, UniProt P01127 82-190).
T8 construct: Soluble recombinant PDGF-BB homodimer; also called human PDGF-BB; hPDGF-BB
The test is described as above. How it is done:
as §1, with “Unreacted” for “For example, approximately 9000 RU of goat anti-human Fc specific polyclonal antibody (Thermo Fisher Scientific Inc., Rockford, Ill.) diluted in 10 mM sodium acetate (pH 4.5) is directly immobilized across a CM5 research grade biosensor chip using a standard amine coupling kit according to manufacturer's instructions and procedures at 25 μg/ml. Unreacted”, “calculated. In this assay, on-rates as fast as 10⁶M⁻¹s⁻¹ and off-rates as slow as 10⁻⁶ s⁻¹ could be measured.” for “calculated.”

The next test concerns the target T9, cyno PDGF-B (PR-1575400) (cynomolgus monkey, UniProt P01127 82-190 (human entry), limits assumed).
T9 construct: Recombinant; also called cynomolgus monkey PDGF-BB; cynoPDGF-BB
T9 chain: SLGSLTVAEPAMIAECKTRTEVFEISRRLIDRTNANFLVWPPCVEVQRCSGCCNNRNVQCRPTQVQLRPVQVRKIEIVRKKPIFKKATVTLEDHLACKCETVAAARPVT
The test is described as above. The protocol: as §1, with “Unreacted” for “For example, approximately 9000 RU of goat anti-human Fc specific polyclonal antibody (Thermo Fisher Scientific Inc., Rockford, Ill.) diluted in 10 mM sodium acetate (pH 4.5) is directly immobilized across a CM5 research grade biosensor chip using a standard amine coupling kit according to manufacturer's instructions and procedures at 25 μg/ml. Unreacted”, “calculated. In this assay, on-rates as fast as 10⁶M⁻¹s⁻¹ and off-rates as slow as 10⁻⁶ s⁻¹ could be measured.” for “calculated.”

Where “and” joins values, the source holds several entries; their conditions need not be identical. Equal entries are not always repeated.

T7 sequence (P31240 82-190 limits assumed): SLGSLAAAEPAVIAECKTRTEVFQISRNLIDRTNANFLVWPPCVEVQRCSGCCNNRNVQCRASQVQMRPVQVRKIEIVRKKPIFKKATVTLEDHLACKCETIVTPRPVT

B1: BFU-11A8-D6-C3 (antibody, V domains shown)
VH: EVQLQQSGPELQRPGASVKLSCKASGYTFTESYIYWVKQRPEQSLELIGRIDPEDGSTDYVEKFKNKATLTADTSSNTAYMQLSSLTSEDTATYFCARFGARSYFYPMDAWGQGTSVTVSS
VL: DTVLTQSPTLAVSPGERVSIPCRASESVSTLMHWYQQKPGQQPRLLIYGASNLESGVPARFSGSGSGTDFTLTIDPVEADDTATYFCQQSWNDPWTFGGGTKLELK
By Kd is commonly meant the constant that tells how readily two partners part at equilibrium. As a reminder, the koff is a measure of how fast the partners let go of each other. One may read the kon as the second-order rate constant of association. Regarding B1, in test [1], the Kd is at most 0.047 pM, the koff was at most 1e-06 s⁻¹ and the on-rate constant (kon) is 2.1e+07 M⁻¹ s⁻¹.

B2: chBEW-9A8 (antibody, human IgG1, kappa, L234A L235A, V domains shown)
VH: QIQLVQSGPELKKPGESVKISCKASGYTFTNYGMYWVKQAPGQGLQYMGWINTETGKPIYADDFKGRFVFFLETSASTAYLQINNLKNEDMATFFCARVDYDGSFWFAYWGQGTLVTVSS
VL: DTVLTQSPALAVSPGERVSISCRASESVSTVIHWYQQKPGQQPKLLIHGASNLESGVPARFSGSGSGTDFTLTIDPVEADDTATYFCQQHWNDPPTFGAGTKLEMKR
Broadly, the IC50 is the concentration at which inhibition is half-maximal. High values mean weaker potency in that assay, low ones greater potency in that assay. Turning to B2, in the test with human VEGF111, the “Phospho-Tyr1054/huVEGF-A111 Neuterlization” value stood at 0.26 nM. For the same molecule, in the test with Human VEGF-A 165 [2], the “huVEGF-A165 Neutralization Potency in HMVEC-d cells” value was 26 pM. In the test with Human VEGF-A 165 [3], the IC50 was 97 pM. In the test with Human VEGF-A 165 [4], the Kd is at most 0.11 pM and the kon was determined as 8.9e+06 M⁻¹ s⁻¹.

B3: chBDB-4G8 (antibody, human IgG1, kappa, L234A L235A)
heavy: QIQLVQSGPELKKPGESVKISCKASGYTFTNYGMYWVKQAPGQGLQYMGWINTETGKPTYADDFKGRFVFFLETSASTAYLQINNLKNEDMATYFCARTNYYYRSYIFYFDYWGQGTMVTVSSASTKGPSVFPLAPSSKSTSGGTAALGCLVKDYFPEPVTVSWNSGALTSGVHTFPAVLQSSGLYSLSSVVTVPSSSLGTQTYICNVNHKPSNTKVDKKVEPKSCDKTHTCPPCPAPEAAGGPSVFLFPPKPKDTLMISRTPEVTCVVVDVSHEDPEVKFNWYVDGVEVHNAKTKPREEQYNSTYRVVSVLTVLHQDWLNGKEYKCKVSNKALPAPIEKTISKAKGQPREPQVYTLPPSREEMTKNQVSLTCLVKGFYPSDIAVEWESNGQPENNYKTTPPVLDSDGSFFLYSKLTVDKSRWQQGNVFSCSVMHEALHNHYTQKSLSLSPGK
light: DTVLTQSPALAVSPGERVSISCRASESVSTHMHWYQQKPGQQPKLLIYGASNLESGVPARFSGSGSGTDFTLTIDPVEADDTATYFCQQSWNDPFTFGAVTKLELKRTVAAPSVFIFPPSDEQLKSGTASVVCLLNNFYPREAKVQWKVDNALQSGNSQESVTEQDSKDSTYSLSSTLTLSKADYEKHKVYACEVTHQGLSSPVTKSFNRGEC
As to B3, the “Phospho-Tyr1054/huVEGF-A111 Neuterlization” value with human VEGF111 was 0.575 nM. Besides, the “huVEGF-A165 Neutralization Potency in HMVEC-d cells” value with Human VEGF-A 165 [2] turned out to be 195 pM. In the test with Human VEGF-A 165 [3], this molecule displayed an IC50 of 157 pM. Further, in the test with Human VEGF-A 165 [4], the Kd was 1.9 pM and 3.8 pM; the kon is 1.7e+07 M⁻¹ s⁻¹ and 1.2e+07 M⁻¹ s⁻¹.

B4: AB642 (9E10.1), PR-1594047 (antibody, V domains shown)
VH: EIQLVQSGSELKKPGASVKVSCKASGYTFTNYGMYWVKQAPGQGLEYMGWIDTETGRPTYADDFKGRFVFSLDTSVSTAYLQISSLKAEDTAVYFCARWSGDTTGIRGPWFAYWGQGTLVTVSS
VL: DIRMTQSPSSLSASVGDRVTIECLASEDIYSDLAWYQQKPGKSPKLLIYNANGLQNGVPSRFSGSGSGTDYSLTISSLQPEDVATYFCQQYNYFPGTFGQGTKLEIK
notes: Parental anti-VEGF mAb of PR-1610561; Humanized IgG; also called hBEW-9E10.1
B4: in [5], the Kd was 1.8 pM, the koff was 2.8e-05 s⁻¹ and the kon amounted to 1.6e+07 M⁻¹ s⁻¹. In [6], this molecule came in with a Kd of 58 pM, a koff of 0.0001 s⁻¹ and a kon of 1.8e+06 M⁻¹ s⁻¹. In [7], the Kd worked out at 21 pM, the koff is 6.8e-05 s⁻¹ and the kon came to 3.2e+06 M⁻¹ s⁻¹.

B5: CL-33675, PR-1593725 (antibody, V domains shown)
VH: EVTLRESGPALVKPTQTLTLTCTFSGFSLSTYGMGVGWIRQPPGKALEWLANIWWDDDKYYNPSLKNRLTISKDTSKNQVVLTMTNMDPVDTATYYCARIESSGPKYSFDYWGQGTMVTVSS
VL: EIVLTQSPGTLSLSPGERATLSCRASSGSIWYSFVSWYQQKPGQAPRLLIYADDQRASGIPDRFSGSGSGTDFTLTISRLEPEDFAVYYCQSYGINIDVVFGGGTKVEIK
notes: also called CL-33675-IgG
In test [8], B5 registered a Kd of at most 0.58 pM, a koff of 5.8e-06 s⁻¹ and a kon of at least 1e+07 M⁻¹ s⁻¹. In [9], this molecule showed a dissociation constant (Kd) of at most 0.58 pM, an off-rate (koff) of 5.8e-06 s⁻¹ and an on-rate (kon) of at least 1e+07 M⁻¹ s⁻¹. Further, in the test with cyno PDGF-B (PR-1575400), the Kd is at most 1.3 pM, the dissociation rate constant (koff) is 1.3e-05 s⁻¹ and the kon was at least 1e+07 M⁻¹ s⁻¹.

The record behind these values is patent US20170015742A1 (published 2017).
